In US20210145976A1 (ARO BIOTHERAPEUTICS, published 2021):

Key:
[1] = target: T1, recombinant biotinylated CD71 extracellular domain (Sino Biologics) with an N-terminal 6His tag (human, UniProt P02786 89-760, biotinylated (sites not given)); assay: screening ELISA
T1 construct: extracellular domain; also called hCD71; huCD71

[2] = target: T1, recombinant biotinylated CD71 …; assay: screening ELISA, ratio

T1 sequence (P02786 other isoform, or with tags, fused parts or gaps): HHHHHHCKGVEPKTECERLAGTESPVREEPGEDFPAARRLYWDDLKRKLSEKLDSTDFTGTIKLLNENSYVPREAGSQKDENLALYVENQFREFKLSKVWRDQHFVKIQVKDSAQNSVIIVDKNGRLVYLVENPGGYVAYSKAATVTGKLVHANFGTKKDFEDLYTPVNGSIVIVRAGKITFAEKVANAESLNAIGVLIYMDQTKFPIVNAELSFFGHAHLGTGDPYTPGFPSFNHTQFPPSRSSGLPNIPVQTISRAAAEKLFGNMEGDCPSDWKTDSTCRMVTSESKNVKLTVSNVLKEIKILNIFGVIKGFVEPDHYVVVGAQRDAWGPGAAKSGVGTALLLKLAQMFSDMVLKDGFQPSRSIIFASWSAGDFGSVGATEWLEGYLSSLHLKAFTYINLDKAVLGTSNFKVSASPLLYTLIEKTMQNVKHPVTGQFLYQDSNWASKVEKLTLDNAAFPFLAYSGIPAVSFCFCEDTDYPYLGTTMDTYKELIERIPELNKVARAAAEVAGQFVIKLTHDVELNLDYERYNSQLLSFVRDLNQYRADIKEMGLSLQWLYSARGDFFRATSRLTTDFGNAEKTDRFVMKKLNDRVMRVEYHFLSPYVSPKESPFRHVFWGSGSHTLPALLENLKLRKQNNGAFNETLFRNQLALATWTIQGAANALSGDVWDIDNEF

Binder	hCD71 [1]	hCD71:HSA [2]
SEQ ID NO 173 (designed binder, FN3 domain) MLPAPKNLVVSRVTEDSARLSWTAPDAAFDSFTIHYRELYVQAIVLTVPGSERSYDLTGLKPGTEYLVMIPGVKGGPTSVPLSAIFTT	979000	47
SEQ ID NO 186 (designed binder, FN3 domain) MLPAPKNLVVSRVTEDSARLSWTAPDAAFDSFFIGYLESAEAIVLTVPGSERSYDLTGLKPGTEYLVTIQGVKGGIASDPLSAIFTT	2.02e+06	1090
SEQ ID NO 191 (designed binder, FN3 domain) MLPAPENLVVSRVTEDSARLSWTAPDAAFDSFEITYEENWRRGEAIVLTVPGSERSYDLTGPKPGTEYIVIIQGVKGGAESWPLSAIFTT	1.47e+06	43
SEQ ID NO 201 (designed binder, FN3 domain) MLPAPKNLVVSRVTEDSARLSWTAPDAAFDSFNIDYWETWVIGEAIVLTVPGSERSYDLTGLKPGTEYEVIIPGVKGGTISPPLSAIFTT	1.2e+06	106
SEQ ID NO 204 (designed binder, FN3 domain) MLPAPKNLVVSRVTEDSARLPWTAPDAAFDSFWISYYESVGYGEAIVLTVPGSERSYDLTGLKPGTEYYVDISGVKGGVYSLPLSAIFTT	2.77e+06	113
SEQ ID NO 209 (designed binder, FN3 domain) MLPAPKNLVVSRVTEDSARLSWTAPDAAFDSFTIPYIEYVWWGEAIVLTVQGSERSYDLTGLKPGTEYPVTIGGVKGGSRSHPLHAHFTT	790000	57
SEQ ID NO 199 (designed binder, FN3 domain) MLPAPKNLVVSRVTEDSARLSWTAPDAAFDSFGIRYFEWWDLGEAIVLTVPGSERSYDPTGLKPGTEYNVTIQGVKGGFPSMPLSAIFTT	1.46e+06	101
SEQ ID NO 184 (designed binder, FN3 domain) MLPAPKNLVVSRITEDSARLSWTAPDAAFDSFGIGYYEHKRFGEAIQLSVPGSERSYDLTGLKPGTEYEVDIEGVKGGVLSWPLFAEFTT	470000	235

More lines, now with the values ahead:

hCD71 [1]	hCD71:HSA [2]	Binder
2.39e+06	71	SEQ ID NO 218 (designed binder, FN3 domain) MLPAPKNLVVSRVTEDSARLSWTAPDAAFDSFTILYYEMVGEGEAIVLTVPGSERSYDLTGPKPGTEYWVDIYGVKGGGWSRPLSAIFTT
2.29e+06	49	SEQ ID NO 208 (designed binder, FN3 domain) MLPAPKNLVVSRVTEDSARLSWTAPDAAFDSFGIVYREPYVGGEAIVLTVPGSERSYDLTGLKPGTEYGVPIPGVKGGYDSGPLSAIFTT
1.96e+06	29	SEQ ID NO 189 (designed binder, FN3 domain) MLPAPKNLVVSRVTEDSARLSWTAPDAAFDSFHEWVYFGEAIVLTVPGSERSYDLTGLKPGTEYFVDIWGVKGGTVSKPLSAIFTT
1.72e+06	50	SEQ ID NO 196 (designed binder, FN3 domain) MLPAPKNLVVSRVTEDSARLSWTAPDAAFDSFNIHYVEWWVLGEAIVLTVPGSERSYDLTGLKPGTEYPVYIYGVKGGPKSIPLSAIFTT
833000	314	SEQ ID NO 206 (designed binder, FN3 domain) MLPAPKNLVVSRVTEDSARLSWTAPDAAFDSFDIEYDELWKNGEAIVLTVPGSERSYDLTGLKPGTEYRVFIYGVKGGYGSFPLSAIFTT
3.38e+06	1020	SEQ ID NO 203 (designed binder, FN3 domain) MLPAPKNLVVSRVTEDSARLSWTAPDAALDSFRIEYYESYGHGEAIVLTVPGSERSYDLTGLKPGTEYDVGIYGVKGGYYSRPLSAIFTT
